T1: Human PTK7 Protein, His Tag (Acro Biosystems) (human, UniProt Q13308 31-704)
T1 construct: Bought His-tagged recombinant human PTK7; also called CCK4; Tyrosine-protein kinase-like 7
T1 sequence: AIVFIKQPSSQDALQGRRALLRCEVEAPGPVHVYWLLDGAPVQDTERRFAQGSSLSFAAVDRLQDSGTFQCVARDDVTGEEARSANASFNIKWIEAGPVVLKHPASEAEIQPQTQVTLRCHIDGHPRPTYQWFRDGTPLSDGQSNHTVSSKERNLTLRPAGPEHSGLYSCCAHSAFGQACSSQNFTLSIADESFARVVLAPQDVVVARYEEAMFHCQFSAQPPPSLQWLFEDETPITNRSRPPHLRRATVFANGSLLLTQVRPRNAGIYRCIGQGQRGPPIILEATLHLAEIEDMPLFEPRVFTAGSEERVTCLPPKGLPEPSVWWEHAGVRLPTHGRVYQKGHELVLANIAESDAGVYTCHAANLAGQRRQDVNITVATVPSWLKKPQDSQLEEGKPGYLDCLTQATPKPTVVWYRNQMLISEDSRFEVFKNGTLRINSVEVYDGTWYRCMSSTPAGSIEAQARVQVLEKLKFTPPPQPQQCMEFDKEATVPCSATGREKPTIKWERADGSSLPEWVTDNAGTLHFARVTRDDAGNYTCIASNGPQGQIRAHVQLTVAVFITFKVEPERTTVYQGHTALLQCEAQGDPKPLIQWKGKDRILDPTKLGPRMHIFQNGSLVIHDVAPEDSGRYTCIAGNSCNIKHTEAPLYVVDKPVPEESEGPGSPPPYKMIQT

T2: Human PTK7 Protein, His Tag, Acro Biosystems (human, UniProt Q13308 31-704)
T2 construct: Bought recombinant protein; also called CCK4; not shown: His tag
T2 sequence: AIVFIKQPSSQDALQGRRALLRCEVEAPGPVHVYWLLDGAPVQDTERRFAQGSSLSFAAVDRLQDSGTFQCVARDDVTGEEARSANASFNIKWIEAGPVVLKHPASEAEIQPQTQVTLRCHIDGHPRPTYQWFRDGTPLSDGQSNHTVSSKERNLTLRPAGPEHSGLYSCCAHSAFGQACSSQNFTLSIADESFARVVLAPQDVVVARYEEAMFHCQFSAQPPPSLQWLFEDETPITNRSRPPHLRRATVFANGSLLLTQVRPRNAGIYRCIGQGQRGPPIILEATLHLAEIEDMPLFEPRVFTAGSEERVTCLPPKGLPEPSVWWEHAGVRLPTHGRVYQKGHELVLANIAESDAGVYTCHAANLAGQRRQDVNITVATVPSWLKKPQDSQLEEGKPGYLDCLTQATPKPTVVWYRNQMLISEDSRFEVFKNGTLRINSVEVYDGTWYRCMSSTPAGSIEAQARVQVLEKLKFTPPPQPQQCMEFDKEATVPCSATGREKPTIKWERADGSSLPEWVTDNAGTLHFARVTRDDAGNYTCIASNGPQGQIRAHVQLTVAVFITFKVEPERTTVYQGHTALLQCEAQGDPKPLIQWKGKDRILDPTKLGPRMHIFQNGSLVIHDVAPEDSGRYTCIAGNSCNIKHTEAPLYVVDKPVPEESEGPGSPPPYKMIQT


Target: T1, Human PTK7 Protein, His Tag (Acro …)
Assay: BLI (Octet), antibody on anti-human Fc sensor, 50 nM PTK7; 1 = pH dependent binding

binding result | Binder
binds | MYT10951 (antibody, V domains shown, MYT9359 HC variant; captured on anti-human Fc sensor) VH: EVQLVESGGGLVQPGGSLRLSCTASHFSLSSYAMGWVRQAPGKGLEWVGFINAGGNTYYANWAKGRFTISRDTSKNTVYLQMNSLRAEDTAVYFCARRYSRASGWYDLWGQGTLVTVSS VL: EIVMTQSPSTLSASVGDRVIITCQASQSISSYLAWYQQKPGKAPKLLIYAASTLASGVPSRFSGSGSGAEFTLTISSLQPDDFATYYCQSYSYSSGIDYGDVFGQGTKLTVL
binds | MYT10957 (antibody, V domains shown, MYT9359 HC variant; captured on anti-human Fc sensor) VH: EVQLVESGGGLVQPGGSLRLSCTASGFSLSSHAMGWVRQAPGKGLEWVGFINAGGNTYYANWAKGRFTISRDTSKNTVYLQMNSLRAEDTAVYFCARRYSRASGWYDLWGQGTLVTVSS VL: EIVMTQSPSTLSASVGDRVIITCQASQSISSYLAWYQQKPGKAPKLLIYAASTLASGVPSRFSGSGSGAEFTLTISSLQPDDFATYYCQSYSYSSGIDYGDVFGQGTKLTVL
binds | MYT10962 (antibody, V domains shown, MYT9359 HC variant; captured on anti-human Fc sensor) VH: EVQLVESGGGLVQPGGSLRLSCTASGFSLSSYAMGWVRQAPGKGLEWVGFHNAGGNTYYANWAKGRFTISRDTSKNTVYLQMNSLRAEDTAVYFCARRYSRASGWYDLWGQGTLVTVSS VL: EIVMTQSPSTLSASVGDRVIITCQASQSISSYLAWYQQKPGKAPKLLIYAASTLASGVPSRFSGSGSGAEFTLTISSLQPDDFATYYCQSYSYSSGIDYGDVFGQGTKLTVL
binds | MYT10966 (antibody, V domains shown, MYT9359 HC variant; captured on anti-human Fc sensor) VH: EVQLVESGGGLVQPGGSLRLSCTASGFSLSSYAMGWVRQAPGKGLEWVGFINAGHNTYYANWAKGRFTISRDTSKNTVYLQMNSLRAEDTAVYFCARRYSRASGWYDLWGQGTLVTVSS VL: EIVMTQSPSTLSASVGDRVIITCQASQSISSYLAWYQQKPGKAPKLLIYAASTLASGVPSRFSGSGSGAEFTLTISSLQPDDFATYYCQSYSYSSGIDYGDVFGQGTKLTVL
binds | MYT10969 (antibody, V domains shown, MYT9359 HC variant; captured on anti-human Fc sensor) VH: EVQLVESGGGLVQPGGSLRLSCTASGFSLSSYAMGWVRQAPGKGLEWVGFINAGGNTHYANWAKGRFTISRDTSKNTVYLQMNSLRAEDTAVYFCARRYSRASGWYDLWGQGTLVTVSS VL: EIVMTQSPSTLSASVGDRVIITCQASQSISSYLAWYQQKPGKAPKLLIYAASTLASGVPSRFSGSGSGAEFTLTISSLQPDDFATYYCQSYSYSSGIDYGDVFGQGTKLTVL
binds | MYT10970 (antibody, V domains shown, MYT9359 HC variant; captured on anti-human Fc sensor) VH: EVQLVESGGGLVQPGGSLRLSCTASGFSLSSYAMGWVRQAPGKGLEWVGFINAGGNTYHANWAKGRFTISRDTSKNTVYLQMNSLRAEDTAVYFCARRYSRASGWYDLWGQGTLVTVSS VL: EIVMTQSPSTLSASVGDRVIITCQASQSISSYLAWYQQKPGKAPKLLIYAASTLASGVPSRFSGSGSGAEFTLTISSLQPDDFATYYCQSYSYSSGIDYGDVFGQGTKLTVL
binds | MYT10978 (antibody, V domains shown, MYT9359 HC variant; captured on anti-human Fc sensor) VH: EVQLVESGGGLVQPGGSLRLSCTASGFSLSSYAMGWVRQAPGKGLEWVGFINAGGNTYYANWAKGRFTISRDTSKNTVYLQMNSLRAEDTAVYFCAHRYSRASGWYDLWGQGTLVTVSS VL: EIVMTQSPSTLSASVGDRVIITCQASQSISSYLAWYQQKPGKAPKLLIYAASTLASGVPSRFSGSGSGAEFTLTISSLQPDDFATYYCQSYSYSSGIDYGDVFGQGTKLTVL
binds | MYT10980 (antibody, V domains shown, MYT9359 HC variant; captured on anti-human Fc sensor) VH: EVQLVESGGGLVQPGGSLRLSCTASGFSLSSYAMGWVRQAPGKGLEWVGFINAGGNTYYANWAKGRFTISRDTSKNTVYLQMNSLRAEDTAVYFCARRHSRASGWYDLWGQGTLVTVSS VL: EIVMTQSPSTLSASVGDRVIITCQASQSISSYLAWYQQKPGKAPKLLIYAASTLASGVPSRFSGSGSGAEFTLTISSLQPDDFATYYCQSYSYSSGIDYGDVFGQGTKLTVL
binds | MYT10974 (antibody, V domains shown, MYT9359 HC variant; captured on anti-human Fc sensor) VH: EVQLVESGGGLVQPGGSLRLSCTASGFSLSSYAMGWVRQAPGKGLEWVGFINAGGNTYYANWHKGRFTISRDTSKNTVYLQMNSLRAEDTAVYFCARRYSRASGWYDLWGQGTLVTVSS VL: EIVMTQSPSTLSASVGDRVIITCQASQSISSYLAWYQQKPGKAPKLLIYAASTLASGVPSRFSGSGSGAEFTLTISSLQPDDFATYYCQSYSYSSGIDYGDVFGQGTKLTVL
binds | MYT10997 (antibody, V domains shown, MYT9359 LC variant; captured on anti-human Fc sensor) VH: EVQLVESGGGLVQPGGSLRLSCTASGFSLSSYAMGWVRQAPGKGLEWVGFINAGGNTYYANWAKGRFTISRDTSKNTVYLQMNSLRAEDTAVYFCARRYSRASGWYDLWGQGTLVTVSS VL: EIVMTQSPSTLSASVGDRVIITCQASQSHSSYLAWYQQKPGKAPKLLIYAASTLASGVPSRFSGSGSGAEFTLTISSLQPDDFATYYCQSYSYSSGIDYGDVFGQGTKLTVL
binds | MYT10959 (antibody, V domains shown, MYT9359 HC variant; captured on anti-human Fc sensor) VH: EVQLVESGGGLVQPGGSLRLSCTASGFSLSSYAHGWVRQAPGKGLEWVGFINAGGNTYYANWAKGRFTISRDTSKNTVYLQMNSLRAEDTAVYFCARRYSRASGWYDLWGQGTLVTVSS VL: EIVMTQSPSTLSASVGDRVIITCQASQSISSYLAWYQQKPGKAPKLLIYAASTLASGVPSRFSGSGSGAEFTLTISSLQPDDFATYYCQSYSYSSGIDYGDVFGQGTKLTVL
binds | MYT10963 (antibody, V domains shown, MYT9359 HC variant; captured on anti-human Fc sensor) VH: EVQLVESGGGLVQPGGSLRLSCTASGFSLSSYAMGWVRQAPGKGLEWVGFIHAGGNTYYANWAKGRFTISRDTSKNTVYLQMNSLRAEDTAVYFCARRYSRASGWYDLWGQGTLVTVSS VL: EIVMTQSPSTLSASVGDRVIITCQASQSISSYLAWYQQKPGKAPKLLIYAASTLASGVPSRFSGSGSGAEFTLTISSLQPDDFATYYCQSYSYSSGIDYGDVFGQGTKLTVL
binds | MYT10991 (antibody, V domains shown, MYT9359 HC alanine variant; captured on anti-human Fc sensor) VH: EVQLVESGGGLVQPGGSLRLSCTASGFSLSSYAMGWVRQAPGKGLEWVGFINAGGNTYYANWAKGRFTISRDTSKNTVYLQMNSLRAEDTAVYFCARRYSRASGWYALWGQGTLVTVSS VL: EIVMTQSPSTLSASVGDRVIITCQASQSISSYLAWYQQKPGKAPKLLIYAASTLASGVPSRFSGSGSGAEFTLTISSLQPDDFATYYCQSYSYSSGIDYGDVFGQGTKLTVL
binds | MYT10993 (antibody, V domains shown, MYT9359 LC variant; captured on anti-human Fc sensor) VH: EVQLVESGGGLVQPGGSLRLSCTASGFSLSSYAMGWVRQAPGKGLEWVGFINAGGNTYYANWAKGRFTISRDTSKNTVYLQMNSLRAEDTAVYFCARRYSRASGWYDLWGQGTLVTVSS VL: EIVMTQSPSTLSASVGDRVIITCQHSQSISSYLAWYQQKPGKAPKLLIYAASTLASGVPSRFSGSGSGAEFTLTISSLQPDDFATYYCQSYSYSSGIDYGDVFGQGTKLTVL

Target: T2, Human PTK7 Protein, His Tag, Acro …
Assay: BLI (Octet), antibody on anti-human Fc sensor, 50 nM PTK7 at pH 7.4, dissociation at pH 7.4 or 5.4; 2 = substantially similar binding relative to parent

binding result | Binder
binds | MYT10940 (antibody, V domains shown, MYT9345 variant, His at VL pos 92 (L3 02)) VH: EVQLVESGGGLVQPGGSLRLSCTASGFSLSNYVMNWVRQAPGKGLEWVGIIDSSGSTYYASWAKGRFTISRDTSKNTVYLQMNSLRAEDTAVYFCARGLYLWGQGTLVTVSS VL: EIVMTQSPSTLSASVGDRVIITCQSSQSVYNNNLLAWYQQKPGKAPKLLIYYTSNLASGVPSRFSGSGSGAEFTLTISSLQPDDFATYYCQHGYNGNIYAFGQGTKLTVL
binds | MYT10945 (antibody, V domains shown, MYT9345 variant, His at VL pos 97 (L3 07)) VH: EVQLVESGGGLVQPGGSLRLSCTASGFSLSNYVMNWVRQAPGKGLEWVGIIDSSGSTYYASWAKGRFTISRDTSKNTVYLQMNSLRAEDTAVYFCARGLYLWGQGTLVTVSS VL: EIVMTQSPSTLSASVGDRVIITCQSSQSVYNNNLLAWYQQKPGKAPKLLIYYTSNLASGVPSRFSGSGSGAEFTLTISSLQPDDFATYYCQGGYNGHIYAFGQGTKLTVL
binds | MYT10947 (antibody, V domains shown, MYT9345 variant, His at VL pos 99 (L3 09)) VH: EVQLVESGGGLVQPGGSLRLSCTASGFSLSNYVMNWVRQAPGKGLEWVGIIDSSGSTYYASWAKGRFTISRDTSKNTVYLQMNSLRAEDTAVYFCARGLYLWGQGTLVTVSS VL: EIVMTQSPSTLSASVGDRVIITCQSSQSVYNNNLLAWYQQKPGKAPKLLIYYTSNLASGVPSRFSGSGSGAEFTLTISSLQPDDFATYYCQGGYNGNIHAFGQGTKLTVL
binds | MYT10948 (antibody, V domains shown, MYT9345 variant, His at VL pos 100 (L3 10)) VH: EVQLVESGGGLVQPGGSLRLSCTASGFSLSNYVMNWVRQAPGKGLEWVGIIDSSGSTYYASWAKGRFTISRDTSKNTVYLQMNSLRAEDTAVYFCARGLYLWGQGTLVTVSS VL: EIVMTQSPSTLSASVGDRVIITCQSSQSVYNNNLLAWYQQKPGKAPKLLIYYTSNLASGVPSRFSGSGSGAEFTLTISSLQPDDFATYYCQGGYNGNIYHFGQGTKLTVL
binds | MYT10941 (antibody, V domains shown, MYT9345 variant, His at VL pos 93 (L3 03)) VH: EVQLVESGGGLVQPGGSLRLSCTASGFSLSNYVMNWVRQAPGKGLEWVGIIDSSGSTYYASWAKGRFTISRDTSKNTVYLQMNSLRAEDTAVYFCARGLYLWGQGTLVTVSS VL: EIVMTQSPSTLSASVGDRVIITCQSSQSVYNNNLLAWYQQKPGKAPKLLIYYTSNLASGVPSRFSGSGSGAEFTLTISSLQPDDFATYYCQGHYNGNIYAFGQGTKLTVL

Source: patent US20260209386A1 (MYTHIC THERAPEUTICS, published 2026)
